T1: IFN-λR1, soluble recombinant receptor (UniProt Q8IU57 21-226)
T1 sequence: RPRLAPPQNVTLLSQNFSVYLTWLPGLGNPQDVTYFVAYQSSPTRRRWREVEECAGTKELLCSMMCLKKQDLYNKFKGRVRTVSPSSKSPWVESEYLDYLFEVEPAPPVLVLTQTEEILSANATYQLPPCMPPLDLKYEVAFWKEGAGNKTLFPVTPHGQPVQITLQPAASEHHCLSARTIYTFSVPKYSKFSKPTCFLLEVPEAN

B1: H11/IFN-λR1 binary complex (complex)
chain 1: GSARGCHIAQFKSLSPRELQAFKRAKDALEESLLLKDCKCRSRLFPRTWDLRQLQVRERPVALEAELALTLKVLDATADTDPALGDVLDQPLHTLHHILSQLRACIQPQPTAGPRTRGRLHRWLHRLQEAPKKESPGCLEASVTFNLFRLLARDLNCVASGDLCEAAAHHHHHHHH
chain 2: RPRLAPPQNVTLLSQNFSVYLTWLPGLGNPQDVTYFVAYQSSPTRRRWREVEECAGTKELLCSMMCLKKQDLYNKFKGRVRTVSPSSKSPWVESEYLDYLFEVEPAPPVLVLTQTEEILSANATYQLPPCMPPLDLKYEVAFWKEGAGNKTLFPVTPHGQPVQITLQPAASEHHCLSARTIYTFSVPKYSKFSKPTCFLLEVPEAN
B2: IL-10Rβ, monomeric soluble receptor (receptor)
chain: MVPPPENVRMNSVNFKNILQWESPAFAKGNLTFTAQYLSYRIFQDKCMNTTLTECDFSSLSKYGDHTLRVRAEFADEHSDWVNITFCPVDDTIIGPPGMQVEVLADSLHMRFLAPKIENEYETWTMKNVYNSWTYNVQYWKNGTDEKFQITPQYDFEVLRNLEPWTTYCVQVRGFLPDRNKAGEWSEPVCEQTTHDETVPS
modifications: Alexa 647 label (in the yeast staining)

Assays:
Test in all cases: SPR
[1] = molecular target: B2
[2] = molecular target: T1, IFN-λR1, soluble recombinant receptor
[3] = molecular target: B1

Kd [2] [nM]	Binder	also measured
	B1	Kd [1]: 560 nM
~150	IFN-λ3 H11, recombinant (designed binder) GSARGCHIAQFKSLSPRELQAFKRAKDALEESLLLKDCKCRSRLFPRTWDLRQLQVRERPVALEAELALTLKVLDATADTDPALGDVLDQPLHTLHHILSQLRACIQPQPTAGPRTRGRLHRWLHRLQEAPKKESPGCLEASVTFNLFRLLARDLNCVASGDLCEAAAHHHHHHHH	
	B2	fold increase in affinity against the wild-type IFN-λ3/IFN-λR1 binary complex [3]: 30 fold
~850	Wild-type IFN-λ3, recombinant (ligand) VPVARLRGALPDARGCHIAQFKSLSPQELQAFKRAKDALEESLLLKDCKCRSRLFPRTWDLRQLQVRERPVALEAELALTLKVLEATADTDPALGDVLDQPLHTLHHILSQLRACIQPQPTAGPRTRGRLHHWLHRLQEAPKKESPGCLEASVTFNLFRLLTRDLNCVASGDLCV	

— PMC5510750 (Immunity, 2017)
